# Tests used:
# human GPC3-His protein [1] = target: T1, human GPC3-His protein (human, UniProt P51654 25-559); assay: ELISA, coated human GPC3, antibody 100 nM;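 note: antibodies bound to antigen-coated 96-well plates (1 µg/mL), 2 h at 37 °C, detected with HRP-labelled secondary antibody and TMB substrate, absorbance read at 450 nm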
# T1 construct: Bought protein; also called human GPC3 protein; not shown: His tag
# human GPC3-His protein [2] = target: T1, human GPC3-His protein; assay: ELISA, coated human GPC3, antibody 10 nM;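 note: plate coated with antigen at 1 µg/mL, antibodies bound 2 h at 37 °C, detected via HRP-conjugated secondary antibody and TMB substrate, absorbance read after acid stop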
# Procedure: (§1) The specific method is described as follows: The antigen protein was diluted with PBS to a final concentration of 1 μg/mL, and the diluent was added to a 96-well ELISA plate at 50 μL/well. The plate was sealed with a plastic film and incubated at 4° C. overnight, washed twice with PBS the next day, and a blocking solution [PBS+2% (w/w) BSA] was added for blocking at room temperature for 2 h. […] After incubation at 37° C. for 2 h, the plate was washed 3 times with PBS. A horseradish peroxidase (HRP)-labeled secondary antibody (purchased from Merck, Cat. No. AP113P) was added for incubation at 37° C. for 1 h, and the plate was washed 5 times with PBS. A TMB substrate was added at 50 μL/well for incubation at room temperature for 10 min, then a stop solution (1.0M HCl) was added at 50 μL/well. An ELISA plate reader (Multimode Plate Reader, EnSight, purchased from Perkin Elmer) was used to read OD_{450 nm} values, with results as shown in Table 4 to Table 6, FIG. 1A, FIG. 1B, and FIG. 1C.
# human GPC3-His protein [3] = target: T1, human GPC3-His protein; assay: ELISA, coated human GPC3, antibody 0.001 nM
# human GPC3-His protein [4] = target: T1, human GPC3-His protein; assay: ELISA, coated human GPC3, antibody 0.1 nM;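 note: antigen coated on 96-well plates at 1 µg/mL, antibody bound 2 h at 37 °C, detected with HRP-labeled secondary antibody and TMB substrate, acid-stopped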
# Procedure: as §1
# human GPC3-His protein [5] = target: T1, human GPC3-His protein; assay: ELISA, coated human GPC3, antibody 1 nM;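 note: antigen coated at 1 µg/mL on 96-well plates, antibody bound for 2 h at 37 °C, detected with HRP-labeled secondary antibody and TMB, absorbance read at 450 nm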
# Procedure: as §1
# human GPC3-His protein [6] = target: T1, human GPC3-His protein; assay: ELISA, coated human GPC3, antibody 0.01 nM;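 note: Plate-bound antigen coated at 1 µg/mL, antibody incubated 2 h at 37 °C, binding detected by HRP-conjugated secondary antibody with TMB substrate, read as absorbance at 450 nm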
# [7] = target: T2, GPC3 endogenously expressed on HepG2 cells (UniProt P51654 25-554); assay: FACS on HepG2 cells;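 note: flow cytometric binding of chimeric antibodies to cells, read as mean fluorescence intensity, EC50 obtained by curve fitting of the MFI data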
# T2 construct: whole, on cells
# [8] = target: T3, human GPC3 on CHO-K1-human GPC3 cells (clone CHOK1-hGPC3.2B5) (human, UniProt P51654 25-554); assay: FACS on CHOK1-hGPC3.2B5 cells;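 note: flow cytometry binding of chimeric antibodies to the cells, read out as mean fluorescence intensity, with the half-maximal concentration derived by curve fitting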
# T3 construct: whole, on cells; Stably transfected CHO-K1 clone 2B5
# human GPC3-His protein [9] = target: T1, human GPC3-His protein; assay: ELISA, coated human GPC3, antibody 0.0001 nM
OD450 nm (human GPC3-His protein [1]),OD450 nm (human GPC3-His protein [2]),OD450 nm (human GPC3-His protein [3]),OD450 nm (human GPC3-His protein [4]),OD450 nm (human GPC3-His protein [5]),OD450 nm (human GPC3-His protein [6]),EC50 [7],Max MFI [7],EC50 [8],Max MFI [8],OD450 nm (human GPC3-His protein [9]),Binder
2.56 OD450,2.31 OD450,0.13 OD450,1.22 OD450,2.02 OD450,0.3 OD450,210 pM,2090 MFI,400 pM,9420 MFI,0.1 OD450,"F1.42.8 human-murine chimeric antibody (antibody, human IgG1, kappa, V domains shown) VH: HVQLQQPGAELVKPGASVKLSCKASGYTFTSYWMHWVRQRPGQGLEWIEMIHPNSGSTNYNEKFKSKATLTVDKSSSTAYMQLSSLTSEDSAVYYCARGNYNSSLYAMDYWGQGTSVTVSS VL: DIQMTQTTSSLSASLGDRVTISCSASQGISNYLNWYQQKPDGTVKLLIYYASNLHSGVPSRFSGSGSGTAYSLTISNLEPEDIATYYCQQYSILPYTFGGGTKLEIKR"
0.76 OD450,1.19 OD450,0.1 OD450,0.4 OD450,0.83 OD450,0.17 OD450,870 pM,2340 MFI,1100 pM,10100 MFI,0.08 OD450,"F1.83.6 human-murine chimeric antibody (antibody, human IgG1, kappa, V domains shown) VH: QVQLQQSGPELVKPGASVKISCKASGYAFSSSWMNWVKQRPGKGLEWIGRIYPGDGDTNYNGRFKGKATLTVDKSSSTAYMQLSSLTSEDSAVYFCARGGVFTMALDHWGQGTTLTVSS VL: DIQMTQSPSSLSASLGGKVTITCKASQDINKYIAWYQHKPGKGPRLLIHYTSTLQPGIPSRFSGSGSGRDYSFSISNLEPEDIATYYCLQYDNLFTFGGGTKLEIKR"
1.46 OD450,1.74 OD450,0.11 OD450,0.86 OD450,1.33 OD450,0.23 OD450,250 pM,1880 MFI,660 pM,8850 MFI,0.09 OD450,"F1.73.9 human-murine chimeric antibody (antibody, human IgG1, kappa, V domains shown) VH: QVQLKQSGAELVRPGASVKLSCKASGYTFTDYYINWVKQRPGQGLEWIARIYPGSGNTYYNEKFKGKATLTAEKSSSTAYMQFSSLTSEDSAVYFCACSTYYTMDYWGQGTSVTVSS VL: QIVLTQSPAIMSASLGERVTMTCTASSGVSSSYLHWYQQKPGSSPKLWIYTTSNLASGVPARFSGSGSGTSYSLTISSMEAEDAATYYCHQYHRSPYTFGGGTKLEIKR"
1.51 OD450,1.59 OD450,0.11 OD450,0.97 OD450,1.68 OD450,0.24 OD450,200 pM,1990 MFI,550 pM,9930 MFI,0.08 OD450,"F1.41.17 human-murine chimeric antibody (antibody, human IgG1, kappa, V domains shown) VH: EVQLVESGGDSVKPGGSLKLSCAASGFTFSSYGMSWVRQTPDKRLEWVATINSGGSYTYYQDSVKGRFTISRDNAKNTLYLQMSSLKSEDTAIYYCVRHHYGSSYDYFDYWGQGTTLTVSS VL: DIVMTQAAPSVPVMPGESVSISCRSSKSLLHSNGNTHLYWFLQRPGQSPQLLIYRMSNLASGVPDRFSGSGSGTAFTLRISRVEAEDVGVYYCMQHLEYPLTFGAGTKLELKR"
0.45 OD450,1.07 OD450,0.12 OD450,0.66 OD450,0.72 OD450,0.19 OD450,310 pM,2120 MFI,760 pM,10400 MFI,0.09 OD450,"F1.78.24 human-murine chimeric antibody (antibody, human IgG1, kappa, V domains shown) VH: QVQLQQSGAELVKPGASVKMSCKASGYTFTTYPIEWMKQNHGKSLEWIGNFHPYNDDTNYNVKFKGKATLTVEKSSSTVYLELSRLTSDDSALYYCARRREYYGSFDVWGTGTTVTVSS VL: not shown"
1.84 OD450,1.47 OD450,0.1 OD450,0.61 OD450,1.24 OD450,0.17 OD450,2130 pM,1860 MFI,1670 pM,8280 MFI,0.08 OD450,"F1.2.14 human-murine chimeric antibody (antibody, human IgG1, kappa, V domains shown) VH: RVQLQQSGAELVKPGASVRMSCKASGYTFTAYSIEWMKQNLGKSLEWIGNFRPYNDDTKYNENFKGRATLTVEKSSATVYLELSRLTSDDSAVYYCARSGPTDYFDYWGQGTTLIVSS VL: DIQMTQSPASLSASVGETVTITCRASDNIYSYLAWYQQKQGQSPQLLVYNAKTLAEGVPSRFSGSGSVTQFSLKIISLQPEDFGTYYCQHHFGTPRTFGGGTKLEIKR"

# From patent publication US20260116991A1 (HAINAN SIMCERE ZAIMING PHARMACEUTICAL, published 2026)
